3 molecules from paper PMC11787825 can be followed below.

Test in all cases: cryo-EM structure
Data set [1] has as its target T1, HSV-1 Pol (PolΔN42);UL42 (UL42ΔC340) (Herpes simplex virus 1 (strain …, UniProt H9E937;H9E949 43-1235;2-340, |)).
The target of data set [2] is T1, HSV-1 Pol (PolΔN42);UL42 (UL42ΔC340). The source holds these as a separate data set.
For data set [3] the target is unchanged. This is another data set of the same source.

Numbering of substitutions follows the chain as printed. Where two headings read alike, the source gives them in different places.

B1: PT1 (dsDNA)
DNA 1: GATTACGAATTCGAGCTCGGTACCCGGGGATC
DNA 2: CACACACACACACACACAGATCCCCGGGTACCGAGCTCGAATTCGTAATC
modifications: primer 3'-terminal dideoxycytidine (ddC)
Turning to B1, in data set [1], the binding result was “binds”.

B2: PT3 (dsDNA)
DNA 1: GATTACGAATTCGAGCTCGGTACCCGGGGATCG
DNA 2: B1 DNA 2
modifications: phosphorothioate bonds at primer ends (after nt 1 and before the 3'-terminal G)
As to B2, in data set [2], the binding result is listed as “binds”.

B3: PT2 (dsDNA)
DNA 1: B1 DNA 1
DNA 2: B1 DNA 2 with A18C
modifications: primer 3'-terminal dideoxycytidine (ddC)
Regarding B3, the binding result in data set [3] was “binds”.
